The values that follow come from article PMC5599688.

The target in assay [1] is calnexin in tsA-201 cells (not stated (endogenous human in tsA-201, or transfected mouse cDNA)) (UniProt P27824).
Assay [2] concerns the target calnexin (rat brain) (rat (endogenous in brain)) (UniProt P35565). Description: co-IP; 10% rat brain homogenate (also NEC versus GAERS brain) in 50 mM TrisHCl pH 8.0, 300 mM NaCl, 0.5% Triton X100, 0.5% DOC; rabbit polyclonal anti-CNX overnight at 4 °C, Sepharose G beads; blotted for Cav3.2; signal normalised to precipitated calnexin.
Sequence of UniProt P35565 (P35565 21-591): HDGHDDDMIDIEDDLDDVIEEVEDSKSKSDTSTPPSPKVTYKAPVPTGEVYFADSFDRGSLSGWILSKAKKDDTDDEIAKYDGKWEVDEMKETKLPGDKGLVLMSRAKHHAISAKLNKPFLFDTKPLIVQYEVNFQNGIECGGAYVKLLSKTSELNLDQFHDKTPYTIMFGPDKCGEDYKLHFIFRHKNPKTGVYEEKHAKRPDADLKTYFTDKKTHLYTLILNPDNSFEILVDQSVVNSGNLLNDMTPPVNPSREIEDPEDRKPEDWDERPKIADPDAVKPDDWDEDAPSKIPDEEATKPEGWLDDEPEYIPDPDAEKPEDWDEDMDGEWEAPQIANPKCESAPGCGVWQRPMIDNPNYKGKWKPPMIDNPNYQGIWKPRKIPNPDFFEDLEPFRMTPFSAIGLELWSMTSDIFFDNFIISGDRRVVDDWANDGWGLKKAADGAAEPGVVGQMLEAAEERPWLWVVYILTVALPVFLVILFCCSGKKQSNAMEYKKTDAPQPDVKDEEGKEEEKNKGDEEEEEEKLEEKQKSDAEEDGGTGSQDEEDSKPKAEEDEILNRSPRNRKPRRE
The target in assay [3] is GFP-tagged III-IV linker of rat Cav3.2 without exon 25, GAERS mutation R1584P (rat). Kind of assay: co-IP; tsA-201 cells 72 h after transfection, NP40 lysis buffer; precipitated with anti-GFP (GFP-tagged Cav3.2 regions), blotted with anti-mCherry; densitometry normalised to expression levels.
Sequence of GFP-tagged III-IV linker of rat Cav3.2 without exon 25, GAERS mutation R1584P (rat) (Q9EQ60 whole entry R1584P): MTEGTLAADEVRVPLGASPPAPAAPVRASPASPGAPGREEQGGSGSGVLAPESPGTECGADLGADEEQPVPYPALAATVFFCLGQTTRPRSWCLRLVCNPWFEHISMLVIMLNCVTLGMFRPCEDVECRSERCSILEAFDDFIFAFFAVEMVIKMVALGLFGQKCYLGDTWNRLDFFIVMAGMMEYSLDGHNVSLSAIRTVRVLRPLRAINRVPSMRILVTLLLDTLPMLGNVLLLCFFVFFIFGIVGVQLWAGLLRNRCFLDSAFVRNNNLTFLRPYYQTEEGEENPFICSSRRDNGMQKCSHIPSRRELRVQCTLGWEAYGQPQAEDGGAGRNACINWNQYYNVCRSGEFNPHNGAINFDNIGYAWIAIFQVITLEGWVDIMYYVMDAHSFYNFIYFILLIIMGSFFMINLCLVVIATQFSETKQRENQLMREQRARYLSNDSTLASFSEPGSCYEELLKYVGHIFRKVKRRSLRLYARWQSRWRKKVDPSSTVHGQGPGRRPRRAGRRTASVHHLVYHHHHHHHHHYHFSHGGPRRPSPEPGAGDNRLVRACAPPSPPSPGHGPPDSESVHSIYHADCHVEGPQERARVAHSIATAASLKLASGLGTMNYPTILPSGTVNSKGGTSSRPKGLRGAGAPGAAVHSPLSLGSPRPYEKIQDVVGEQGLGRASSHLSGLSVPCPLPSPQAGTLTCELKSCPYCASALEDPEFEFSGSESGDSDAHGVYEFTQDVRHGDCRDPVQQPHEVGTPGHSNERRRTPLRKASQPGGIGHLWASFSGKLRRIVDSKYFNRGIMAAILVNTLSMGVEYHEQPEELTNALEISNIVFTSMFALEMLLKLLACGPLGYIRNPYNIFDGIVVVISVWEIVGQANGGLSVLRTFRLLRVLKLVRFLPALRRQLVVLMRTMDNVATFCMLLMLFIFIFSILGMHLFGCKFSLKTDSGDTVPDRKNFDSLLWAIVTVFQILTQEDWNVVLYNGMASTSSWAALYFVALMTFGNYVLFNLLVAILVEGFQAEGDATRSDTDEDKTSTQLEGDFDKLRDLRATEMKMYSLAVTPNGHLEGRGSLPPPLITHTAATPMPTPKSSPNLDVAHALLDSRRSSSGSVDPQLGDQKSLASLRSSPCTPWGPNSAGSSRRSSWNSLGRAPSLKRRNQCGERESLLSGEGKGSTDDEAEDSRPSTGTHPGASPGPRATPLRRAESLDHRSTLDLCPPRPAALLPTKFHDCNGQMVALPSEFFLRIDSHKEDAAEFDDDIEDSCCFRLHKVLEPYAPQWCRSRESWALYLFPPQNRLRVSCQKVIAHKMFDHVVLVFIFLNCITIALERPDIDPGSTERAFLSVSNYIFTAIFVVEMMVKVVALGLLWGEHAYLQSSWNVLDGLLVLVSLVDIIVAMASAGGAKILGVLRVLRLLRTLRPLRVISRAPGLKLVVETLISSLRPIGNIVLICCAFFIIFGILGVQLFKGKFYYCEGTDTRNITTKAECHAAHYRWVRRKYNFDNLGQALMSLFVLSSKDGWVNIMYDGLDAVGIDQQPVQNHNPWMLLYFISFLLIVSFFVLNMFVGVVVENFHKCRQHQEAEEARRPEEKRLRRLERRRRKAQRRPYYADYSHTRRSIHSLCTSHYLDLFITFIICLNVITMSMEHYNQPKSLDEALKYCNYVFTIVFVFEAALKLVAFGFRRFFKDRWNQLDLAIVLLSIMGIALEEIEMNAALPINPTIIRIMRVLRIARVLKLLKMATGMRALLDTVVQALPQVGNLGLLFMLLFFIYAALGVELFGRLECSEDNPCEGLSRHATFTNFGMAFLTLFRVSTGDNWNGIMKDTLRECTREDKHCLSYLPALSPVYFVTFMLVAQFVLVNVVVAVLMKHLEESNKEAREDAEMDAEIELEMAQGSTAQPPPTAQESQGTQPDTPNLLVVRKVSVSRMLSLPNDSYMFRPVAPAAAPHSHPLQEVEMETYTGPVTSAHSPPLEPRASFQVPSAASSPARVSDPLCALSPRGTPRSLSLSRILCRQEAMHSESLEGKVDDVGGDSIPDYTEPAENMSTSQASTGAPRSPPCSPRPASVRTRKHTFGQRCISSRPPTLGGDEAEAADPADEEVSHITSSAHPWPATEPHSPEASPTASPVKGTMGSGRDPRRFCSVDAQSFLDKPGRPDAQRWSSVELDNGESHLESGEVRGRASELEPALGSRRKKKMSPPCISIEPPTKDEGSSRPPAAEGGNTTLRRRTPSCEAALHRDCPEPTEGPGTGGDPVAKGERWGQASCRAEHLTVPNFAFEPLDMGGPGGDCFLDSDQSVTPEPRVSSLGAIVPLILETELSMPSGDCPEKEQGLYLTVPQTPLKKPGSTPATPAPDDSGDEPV
Assay [4] has as its target GFP-tagged III-IV linker of rat Cav3.2 without exon 25, wild type (rat). The assay is described as above.
In assay [5] the target is GFP-tagged III-IV linker of rat Cav3.2 with exon 25, GAERS mutation R1584P (rat). The assay is described as above.
Sequence of GFP-tagged III-IV linker of rat Cav3.2 with exon 25, GAERS mutation R1584P (rat) (Q9EQ60 whole entry R1584P): as above
In assay [6] the target is GFP-tagged III-IV linker of human Cav3.2 with R1573P (human) (UniProt O95180). The assay is described as above.

Sequence of UniProt P27824 (P27824 21-592): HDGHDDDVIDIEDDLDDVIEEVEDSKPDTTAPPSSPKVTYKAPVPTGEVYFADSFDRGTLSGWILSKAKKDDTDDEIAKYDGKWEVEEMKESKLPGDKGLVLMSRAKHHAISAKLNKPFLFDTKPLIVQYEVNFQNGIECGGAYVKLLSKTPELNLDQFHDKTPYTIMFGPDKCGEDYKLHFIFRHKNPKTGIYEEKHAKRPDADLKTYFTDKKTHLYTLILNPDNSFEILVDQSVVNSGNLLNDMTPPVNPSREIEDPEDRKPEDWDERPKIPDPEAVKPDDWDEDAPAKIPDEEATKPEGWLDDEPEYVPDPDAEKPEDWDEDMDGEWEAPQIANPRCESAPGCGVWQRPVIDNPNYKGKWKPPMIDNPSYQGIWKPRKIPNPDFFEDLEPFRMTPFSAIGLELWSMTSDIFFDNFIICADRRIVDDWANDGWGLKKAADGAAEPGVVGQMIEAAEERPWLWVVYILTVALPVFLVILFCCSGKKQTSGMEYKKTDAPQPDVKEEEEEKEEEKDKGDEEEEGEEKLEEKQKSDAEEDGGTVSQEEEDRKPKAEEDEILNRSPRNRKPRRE
Sequence of GFP-tagged III-IV linker of rat Cav3.2 without exon 25, wild type (rat) (Q9EQ60 whole entry, stated change not applied): as the sequence (Q9EQ60 whole entry R1584P) above, with P1584R counted along it

In assay [1], “HA-tagged human Cav3.2 channel, O95180 1-2353” registered a mean peak Ba2+ current density at −20 mV, tsA-201 cells expressing HA-hCav3.2 with the soluble calnexin C-tail CNX^CD against control cells (increase) of 76% and a surface expression of HA-tagged Cav3.2 by immunostaining, tsA-201 cells expressing the calnexin C-tail CNX^CD against control cells (increase) of 30%.

As to “Cav3.2 T-type calcium channel of GAERS brain (R1584P), Q9EQ60 1-2359”, in assay [2], the decrease of Cav3.2 co-immunoprecipitated with calnexin, GAERS against NEC brain is 42%.

In assay [3], “mCherry-tagged calnexin lacking the luminal domain (CNX^BD) (from UniProt P35564 483-591) (domain or fragment)” registered an additional decrease of binding (reference unclear: printed as against wild-type rIII-IV (+25)) of 69%. The decrease of binding against wild-type rIII-IV (+25) in assay [4] worked out at 75%; in assay [5], 82%. Further, in assay [6], the decrease of co-immunoprecipitated calnexin C-tail against the wild-type III-IV linker is 70%.
